Article PMC11123841, “Discovery and Synthesis of Hydroxy-L-Proline Blockers of the Neutral Amino Acid Transporters SLC1A4 (ASCT1) and SLC1A5 (ASCT2)” (Molecules, 2024)

Key:
Experiment in all cases: TEVC substrate-induced SCN- anion currents in Xenopus oocytes
Format in all cases: cell-based, mouse
Settings in all cases: other: SLC1A5; substrate activated anion currents, TEVC −30 mV, 50 mM NaSCN, Michaelis-Menten fit
[1] = substrate: O=C(O)[C@@H]1C[C@@H](O)CN1
Protocol: (§1) Two-electrode voltage clamp (TEVC) transporter currents were recorded with a GeneClamp 500 amplifier and Digidata 1320A analog–digital interface (Molecular Devices, San Jose, CA, USA). Electrodes (0.2–1.0 MΩ) were filled with 3M KCl and the recording chamber was grounded with an agar bridge. Data were acquired with Axograph (v1.7.6) and LabChart (v7) and analyzed with Kaleidagraph software (v4.1) (Synergy, Reading, PA, USA). Uncoupled anion currents associated with the transport of substrate and block of SLC1A4 or SLC1A5 mediated leak conductance were recorded in the presence of Ringer with 50% substitution of NaCl by NaSCN to amplify the non-transported anion conductance.
(§2) (A) SLC1A4 dose response curves for substrate activated anion currents using two-electrode voltage clamp of Xenopus lavies oocytes (−30 mV). […] (B) SLC1A5 dose response curve for substrate activated anion currents using two-electrode voltage clamp (−30 mV). […] Extracellular solutions contained 50 mM NaSCN.

[2] = substrate: O=C(O)[C@H]1NCC[C@@H]1O
Protocol: as §1, §2

[3] = substrate: NC(=O)CC[C@H](N)C(=O)O
Protocol: as §1, §2

B1: SLC1A5 (mASCT2) (Mus musculus) (protein)
chain: MAVDPPKADPKGVAVDSSRRCPALGSREDQSAKAGGCCGSRDRVRRCIRANLLVLLTVAAVVAGVGLGLGVSAAGGADALGPARLTRFAFPGELLLRLLKMIILPLVVCSLIGGAASLDPSALGRVGAWALLFFLVTTLLASALGVGLALALKPGAAVTAITSINDSVVDPCARSAPTKEALDSFLDLVRNIFPSNLVSAAFRSFATSYEPKDNSCKIPQSCIQREINSTMVQLLCEVEGMNILGLVVFAIVFGVALRKLGPEGELLIRFFNSFNDATMVLVSWIMWYAPVGILFLVASKIVEMKDVRQLFISLGKYILCCLLGHAIHGLLVLPLIYFLFTRKNPYRFLWGIMTPLATAFGTSSSSATLPLMMKCVEEKNGVAKHISRFILPIGATVNMDGAALFQCVAAVFIAQLNGVSLDFVKIITILVTATASSVGAAGIPAGGVLTLAIILEAVSLPVKDISLILAVDWLVDRSCTVLNVEGDAFGAGLLQSYVDRTKMPSSEPELIQVKNEVSLNPLPLATEEGNPLLKQYQGPTGDSSATFEKESVM
notes: expressed in transfected cells; host or cells: Xenopus laevis oocytes (cRNA injection)
- Km [1]: 76.3 ± 11.0 µM
- Km [2]: 28.6 ± 6.4 µM
- Km [3]: 47.4 ± 4.6 µM
